The results in this text go back to publication PMC3252480 (Nature structural & molecular biology, 2011).

The labels stand for the following.
B2: Vps21-His10 (natural protein, S. cerevisiae, UniProt P36017 1-210, looked up)
chain: MNTSVTSIKLVLLGEAAVGKSSIVLRFVSNDFAENKEPTIGAAFLTQRVTINEHTVKFEIWDTAGQERFASLAPMYYRNAQAALVVYDVTKPQSFIKARHWVKELHEQASKDIIIALVGNKIDMLQEGGERKVAREEGEKLAEEKGLLFFETSAKTGENVNDVFLGIGEKIPLKTAEEQNSASNERESNNQRVDLNAANDGTSANSACSC

Assay [1] deals with Vps21-His10 (S. cerevisiae) (UniProt P36017). Description: liposome tethering by quasielastic light scattering.
In the assay “Vps21-His10” the target is B2. Description: bead-liposome tethering assay.
For the next assay, the target named is T1, GST-Ypt53 (S. cerevisiae, UniProt P36019 1-220).
T1 sequence (looked up): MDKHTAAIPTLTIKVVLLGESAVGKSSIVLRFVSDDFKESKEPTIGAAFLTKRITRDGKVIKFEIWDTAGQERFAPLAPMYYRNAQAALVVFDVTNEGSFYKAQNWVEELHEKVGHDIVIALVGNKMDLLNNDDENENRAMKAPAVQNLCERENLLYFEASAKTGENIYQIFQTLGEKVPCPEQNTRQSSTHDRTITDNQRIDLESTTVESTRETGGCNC
Kind of assay: bead-liposome tethering assay.

As for “Vps21-His10 (from UniProt P36017 1-210) (natural protein)”, the critical surface density for tethering in assay [1] is below 1300 μm^−2.

B1: GST-Ypt10 (natural protein, S. cerevisiae, UniProt P38146 1-199, looked up)
chain: MEATIKVVLLGDSSVGKTSIVTRLKSGKFLAKHAATIGAAFITKTIEVPSNDSSTEKRIHMEIWDTAGQERYKSLVPMYYRDANIALIVFELGDVSSLQCAKTWFQDLQDRAQGTQVIIVGNKYDLVCEEHSGEVTIPAELQGLPYVAVSAKTGYNFDTLNKIIISLVPESQFKTLSKNNEQGNILEINKKKSGSGCIC
Take B1: the binding result with Vps21-His10 was “binds”.
Turning to B2, in the assay with GST-Ypt53, the binding result was “binds”.
